Reference: paper PMC2597415
Changes are numbered by the printed parent chain.

How the values were obtained:
[1] = substrate: O=C(CO)[C@H](O)[C@H](O)COP(=O)(O)O; experiment: coupled-enzyme spectrophotometric assay of RPE activity; type: biochemical, Streptococcus pyogenes; conditions: Co2+ enzyme
[2] = substrate: O=C(CO)[C@H](O)[C@H](O)COP(=O)(O)O; experiment: as above; type: biochemical, Escherichia coli; conditions: Co2+ enzyme

B1: RPE (D-ribulose 5-phosphate 3-epimerase) (Streptococcus pyogenes serotype M1) (protein)
chain: MSTLKIAPSILAADYANFASELARIEETDAEYVHIDIMDGQFVPNISFGADVVASMRKHSKLVFDCHLMVVDPERYVEAFAQAGADIMTIHTESTRHIHGALQKIKAAGMKAGVVINPGTPATALEPLLDLVDQVLIMTVNPGFGGQAFIPECLEKVATVAKWRDEKGLSFDIEVDGGVDNKTIRACYEAGANVFVAGSYLFKASDLVSQVQTLRTALNV
Km [1]: 1.2 ± 0.1 mM
kcat [1]: 3800 ± 160 s⁻¹
kcat/Km [1]: 3.2e+06 M⁻¹ s⁻¹

B2: ALSE (D-allulose 6-phosphate 3-epimerase) (Escherichia coli K-12) (protein)
chain: MKISPSLMCMDLLKFKEQIEFIDSHADYFHIDIMDGHFVPNLTLSPFFVSQVKKLATKPLDCHLMVTRPQDYIAQLARAGADFITLHPETINGQAFRLIDEIRRHDMKVGLILNPETPVEAMKYYIHKADKITVMTVDPGFAGQPFIPEMLDKLAELKAWREREGLEYEIEVDGSCNQATYEKLMAAGADVFIVGTSGLFNHAENIDEAWRIMTAQILAAKSEVQPHAKTA
Km [2]: 3.0 ± 0.3 mM
kcat [2]: 2 ± 0.8 s⁻¹
kcat/Km [2]: 670 M⁻¹ s⁻¹

B3: ALSE (D-allulose 6-phosphate 3-epimerase) (Escherichia coli K-12; DEL196-196) (protein)
chain: MKISPSLMCMDLLKFKEQIEFIDSHADYFHIDIMDGHFVPNLTLSPFFVSQVKKLATKPLDCHLMVTRPQDYIAQLARAGADFITLHPETINGQAFRLIDEIRRHDMKVGLILNPETPVEAMKYYIHKADKITVMTVDPGFAGQPFIPEMLDKLAELKAWREREGLEYEIEVDGSCNQATYEKLMAAGADVFIVGSGLFNHAENIDEAWRIMTAQILAAKSEVQPHAKTA
Km [2]: 3.9 ± 0.5 mM
kcat [2]: 130 ± 7 s⁻¹
kcat/Km [2]: 33000 M⁻¹ s⁻¹

B4: ALSE (D-allulose 6-phosphate 3-epimerase) (Escherichia coli K-12; DEL197-197) (protein)
chain: B3 chain with S196T
Km [2]: 2.8 ± 0.6 mM
kcat [2]: 240 ± 14 s⁻¹
kcat/Km [2]: 85000 M⁻¹ s⁻¹

B5: ALSE (D-allulose 6-phosphate 3-epimerase) (Escherichia coli K-12; DEL198-198) (protein)
chain: B3 chain with S196T, G197S
Km [2]: 5.1 ± 0.5 mM
kcat [2]: 440 ± 20 s⁻¹
kcat/Km [2]: 86000 M⁻¹ s⁻¹
